Test results: patent US20220202905A1, “COMPOSITION FOR PREVENTING OR TREATING NEUROTROPHIC KERATITIS WHICH CONTAINS PACAP PEPTIDE OR STABILIZED PACAP PEPTIDE” (SENJU PHARMACEUTICAL CO., LTD., priority 2019, published 2022)
Square brackets hold non-standard residues; d marks the D form. Peptide text beside a SMILES is read from it. * marks the point of attachment. Ala(1H-tetrazol-5-yl) = N[C@@H](Cc1nnn[nH]1)C(=O)O; Nle = CCCC[C@H](N)C(=O)O; Ms = CS(=O)(=O)*

Tests used:
[1] = Peptide stability test, phosphate buffer (pH 7.0), 40° C. storage, HPLC remaining rate; type: physicochemical; details: for remaining rate after correction for water, 40° C., 1 month preservation / remaining rate after correction for water, 40° C., 2 months preservation: 100 μM in phosphate buffer pH 7.0; for stability in aqueous solution (in words), 40° C. storage: phosphate buffer pH 7.0, 1 or 2 months
Procedure: Peptides 1 and 3 to 5 synthesized in Example 2 were weighed and dissolved in phosphate buffer (pH 7.0) to prepare 1.0 mM peptide solutions. The 1.0 mM peptide solutions were then diluted with phosphate buffer to 100 μM. After filtering with Chromatdisk (product of Merck Millipore, Millex-GV, 0.22 μm), each filtrate was dispensed into an LC vial (Waters Deactivated […] prepared peptide solutions were incubated for one month or 2 months in a 40° C. thermostatic bath to obtain stored samples. A simultaneously prepared sample among the peptide solutions that was not stored was used as a standard sample (initial sample). The standard sample and the stored samples were stored at -30° C. until sample analysis. Using the total weight of the aqueous peptide solution and storage vessel as the specimen weight, measurements were recorded as the specimen weights before storage and the specimen weights after storage under different storage conditions. The empty weight of the storage vessel was also measured, and the moisture permeability was determined by the following formula. After stirring the standard sample and the stored samples with a vortex mixer, each peptide solution was transferred to an HPLC vial (Deactivated Qsert vial by Waters Co.). Reverse-phase HPLC (HPLC system: Prominence by Shimadzu Corp.) was conducted under the conditions shown in Table 3 below for analysis of the peptide solutions, and chromatograms were obtained. Guard column: XSelect CSH C18 by Waters Co., 5 μm, 4.6×20 mm Guard Cartridge Detection wavelength: 220 nm Mobile phase A: 0.1% formic acid aqueous solution Mobile phase B: 0.1% acetonitrile formate solution Measuring time: 30 minutes Measuring sample injection rate: 50 μL Flow rate: 1.0 mL/min Sample cooler: 4° C. Column temperature: 40° C. Mobile phase delivery: The mixing ratio of mobile phase A and mobile phase B was varied as shown in Table 3 for linear concentration gradient control. The peak area value for the peptide in the chromatogram was calculated, and the remaining rate (remaining rate before correction for water) was calculated using formula (2). The remaining rate after correction for water was also calculated from the remaining rate before correction for water using formula (3), taking into account the moisture permeability of the vessel. Peptides 10 and 11 synthesized in Example 2 were weighed and dissolved in phosphate buffer (pH 7.0) to prepare 1.0 mM peptide solutions. Each solution was filtered with a Chromatdisk (product of Merck Millipore. Millex-GV, 0.22 μm). Each filtrate was diluted to 100 μM with phosphate buffer (pH 7.0) and dispensed into a tube (Protein LoBind Tube by Eppendorf Co.). The prepared peptide solutions were incubated for one month or 2 months in a 40° C. thermostatic bath to obtain stored samples. A simultaneously prepared sample among the peptide solutions that was not stored was used as a standard sample (initial sample). The standard sample and the stored samples were stored at -30° C. until sample analysis. The remaining rate after correction for water for each peptide among the stored samples was measured in the same manner as Example 4, and the results are shown in Table 8.

VPAC1 receptor = target: T1, VPAC1 receptor (UniProt P32241 31-457, limits assumed); experiment: cell-based or functional assay
T1 sequence (looked up): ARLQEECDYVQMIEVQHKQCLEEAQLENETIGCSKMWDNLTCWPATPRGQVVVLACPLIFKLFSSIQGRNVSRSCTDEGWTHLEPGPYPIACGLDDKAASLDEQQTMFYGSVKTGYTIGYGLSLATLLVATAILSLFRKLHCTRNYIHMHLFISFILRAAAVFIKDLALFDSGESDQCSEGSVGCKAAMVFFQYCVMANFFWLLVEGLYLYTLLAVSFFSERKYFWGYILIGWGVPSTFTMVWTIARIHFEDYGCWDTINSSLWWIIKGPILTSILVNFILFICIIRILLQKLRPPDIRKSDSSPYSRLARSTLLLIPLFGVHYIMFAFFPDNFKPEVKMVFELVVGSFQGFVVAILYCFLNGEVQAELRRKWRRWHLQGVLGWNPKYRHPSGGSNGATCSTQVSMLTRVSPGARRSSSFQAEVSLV

PAC1 receptor = target: T2, PAC1 receptor (UniProt P41586 21-468, limits assumed); experiment: cell-based or functional assay
T2 sequence (looked up): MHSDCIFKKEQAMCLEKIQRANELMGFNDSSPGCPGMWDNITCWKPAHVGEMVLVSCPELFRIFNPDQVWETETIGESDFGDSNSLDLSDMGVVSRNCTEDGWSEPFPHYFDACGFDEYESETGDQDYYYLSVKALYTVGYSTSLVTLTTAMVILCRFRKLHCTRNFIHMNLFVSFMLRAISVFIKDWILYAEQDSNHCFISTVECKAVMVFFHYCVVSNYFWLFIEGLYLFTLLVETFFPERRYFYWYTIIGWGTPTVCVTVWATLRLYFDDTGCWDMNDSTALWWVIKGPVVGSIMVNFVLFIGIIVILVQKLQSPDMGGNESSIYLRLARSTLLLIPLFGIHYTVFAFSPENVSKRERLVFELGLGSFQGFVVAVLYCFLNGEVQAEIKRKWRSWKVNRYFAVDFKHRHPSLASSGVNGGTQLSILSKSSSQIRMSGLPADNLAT

[2] = Table 8, measured as in Example 4

Molecule | EC50 (VPAC1R), cAMP inducing effect (VPAC1 receptor) | EC50 (PAC1R), cAMP inducing effect (PAC1 receptor) | further results
CCCC[C@H](NC(=O)[C@H](CCC(N)=O)NC(=O)[C@H](CCCCN)NC(=O)[C@H](CCCNC(=N)N)NC(=O)[C@H](Cc1ccc(O)cc1)NC(=O)[C@H](CCCNC(=N)N)NC(=O)[C@H](CO)NC(=O)[C@H](Cc1ccc(O)cc1)NC(=O)[C@H](CO)NC(=O)[C@H](Cc1nnn[nH]1)NC(=O)[C@@H](NC(=O)[C@H](Cc1ccccc1)NC(=O)[C@@H](NC(=O)CNC(=O)[C@H](Cc1nnn[nH]1)NC(=O)[C@H](CO)NC(=O)[C@H](Cc1c[nH]cn1)NS(C)(=O)=O)[C@@H](C)CC)[C@@H](C)O)C(=O)N[C@@H](C)C(=O)N[C@H](C(=O)N[C@@H](CCCCN)C(=O)N[C@@H](CCCCN)C(=O)N[C@@H](Cc1ccc(O)cc1)C(=O)N[C@@H](CC(C)C)C(=O)N[C@@H](C)C(=O)N[C@@H](C)C(=O)N[C@H](C(=O)N[C@@H](CC(C)C)C(N)=O)C(C)C)C(C)C [Peptide 11] (Ms-HS[Ala(1H-tetrazol-5-yl)]GIFT[Ala(1H-tetrazol-5-yl)]SYSRYRKQ[Nle]AVKKYLAAVL-NH2) |  |  | remaining rate after correction for water, 40° C., 1 month preservation [1, 2]: 94.2%; remaining rate after correction for water, 40° C., 2 months preservation [1, 2]: 88.8%; stability in aqueous solution (in words), 40° C. storage [1]: stabilized to the same degree
CC[C@H](C)[C@H](NC(=O)CNC(=O)[C@H](Cc1nnn[nH]1)NC(=O)[C@H](CO)NC(=O)[C@@H](N)Cc1c[nH]cn1)C(=O)N[C@@H](Cc1ccccc1)C(=O)N[C@H](C(=O)N[C@@H](Cc1nnn[nH]1)C(=O)N[C@@H](CO)C(=O)N[C@@H](Cc1ccc(O)cc1)C(=O)N[C@@H](CO)C(=O)N[C@@H](CCCNC(=N)N)C(=O)N[C@@H](Cc1ccc(O)cc1)C(=O)N[C@@H](CCCNC(=N)N)C(=O)N[C@@H](CCCCN)C(=O)N[C@@H](CCC(N)=O)C(=O)N[C@@H](CCSC)C(=O)N[C@@H](C)C(=O)N[C@H](C(=O)N[C@@H](CCCCN)C(=O)N[C@@H](CCCCN)C(=O)N[C@@H](Cc1ccc(O)cc1)C(=O)N[C@@H](CC(C)C)C(=O)N[C@@H](C)C(=O)N[C@@H](C)C(=O)N[C@H](C(=O)N[C@@H](CC(C)C)C(N)=O)C(C)C)C(C)C)[C@@H](C)O [Peptide 5] (H-HS[Ala(1H-tetrazol-5-yl)]GIFT[Ala(1H-tetrazol-5-yl)]SYSRYRKQMAVKKYLAAVL-NH2) |  |  | remaining rate after correction for water, 40° C., 1 month preservation ([1]; Table 4, HPLC conditions 1): 94.7%; remaining rate after correction for water, 40° C., 2 months preservation ([1]; Table 4, HPLC conditions 1): 85.6%; stability in aqueous solution (in words), 40° C. storage [1]: further increased stability over peptide 3 and peptide 4
HSXAIFTXSYSRYRKQLAVKKYLAAVL (N-terminal mesyl (Ms-); Tz (aspartic acid with carboxyl group replaced by tetrazole) at positions 3 and 8; C-terminal amide (NH2)) [Peptide 30] | 0.057 nM | 0.032 nM | 
HSXGIFTXAYSRYRKQLAVKKYLAAVL (N-terminal mesyl (Ms-); Tz (aspartic acid with carboxyl group replaced by tetrazole) at positions 3 and 8; C-terminal amide (NH2)) [Peptide 29] | 0.09 nM | 0.025 nM | 

Continued, in another order:

EC50 (VPAC1R), cAMP inducing effect (VPAC1 receptor) | EC50 (PAC1R), cAMP inducing effect (PAC1 receptor) | Molecule | further results
0.076 nM | 0.148 nM | Ac-HS[Ala(1H-tetrazol-5-yl)]AIFT[Ala(1H-tetrazol-5-yl)]SYSRYRKQAAVKKYLAAVL-NH2 (SMILES CC[C@H](C)[C@H](NC(=O)[C@H](C)NC(=O)[C@H](Cc1nnn[nH]1)NC(=O)[C@H](CO)NC(=O)[C@H](Cc1c[nH]cn1)NC(C)=O)C(=O)N[C@@H](Cc1ccccc1)C(=O)N[C@H](C(=O)N[C@@H](Cc1nnn[nH]1)C(=O)N[C@@H](CO)C(=O)N[C@@H](Cc1ccc(O)cc1)C(=O)N[C@@H](CO)C(=O)N[C@@H](CCCNC(=N)N)C(=O)N[C@@H](Cc1ccc(O)cc1)C(=O)N[C@@H](CCCNC(=N)N)C(=O)N[C@@H](CCCCN)C(=O)N[C@@H](CCC(N)=O)C(=O)N[C@@H](C)C(=O)N[C@@H](C)C(=O)N[C@H](C(=O)N[C@@H](CCCCN)C(=O)N[C@@H](CCCCN)C(=O)N[C@@H](Cc1ccc(O)cc1)C(=O)N[C@@H](CC(C)C)C(=O)N[C@@H](C)C(=O)N[C@@H](C)C(=O)N[C@H](C(=O)N[C@@H](CC(C)C)C(N)=O)C(C)C)C(C)C)[C@@H](C)O) [Peptide 32] | 
0.035 nM | 0.034 nM | Ms-HS[Ala(1H-tetrazol-5-yl)]AIFT[Ala(1H-tetrazol-5-yl)]SYSRYRKQAAVKKYLAAVL-NH2 (SMILES CC[C@H](C)[C@H](NC(=O)[C@H](C)NC(=O)[C@H](Cc1nnn[nH]1)NC(=O)[C@H](CO)NC(=O)[C@H](Cc1c[nH]cn1)NS(C)(=O)=O)C(=O)N[C@@H](Cc1ccccc1)C(=O)N[C@H](C(=O)N[C@@H](Cc1nnn[nH]1)C(=O)N[C@@H](CO)C(=O)N[C@@H](Cc1ccc(O)cc1)C(=O)N[C@@H](CO)C(=O)N[C@@H](CCCNC(=N)N)C(=O)N[C@@H](Cc1ccc(O)cc1)C(=O)N[C@@H](CCCNC(=N)N)C(=O)N[C@@H](CCCCN)C(=O)N[C@@H](CCC(N)=O)C(=O)N[C@@H](C)C(=O)N[C@@H](C)C(=O)N[C@H](C(=O)N[C@@H](CCCCN)C(=O)N[C@@H](CCCCN)C(=O)N[C@@H](Cc1ccc(O)cc1)C(=O)N[C@@H](CC(C)C)C(=O)N[C@@H](C)C(=O)N[C@@H](C)C(=O)N[C@H](C(=O)N[C@@H](CC(C)C)C(N)=O)C(C)C)C(C)C)[C@@H](C)O) [Peptide 31] | 
0.143 nM | 0.089 nM | Ac-HA[Ala(1H-tetrazol-5-yl)]AIFT[Ala(1H-tetrazol-5-yl)]SYSRYRKQAAVKKYLAAVL-NH2 (SMILES CC[C@H](C)[C@H](NC(=O)[C@H](C)NC(=O)[C@H](Cc1nnn[nH]1)NC(=O)[C@H](C)NC(=O)[C@H](Cc1c[nH]cn1)NC(C)=O)C(=O)N[C@@H](Cc1ccccc1)C(=O)N[C@H](C(=O)N[C@@H](Cc1nnn[nH]1)C(=O)N[C@@H](CO)C(=O)N[C@@H](Cc1ccc(O)cc1)C(=O)N[C@@H](CO)C(=O)N[C@@H](CCCNC(=N)N)C(=O)N[C@@H](Cc1ccc(O)cc1)C(=O)N[C@@H](CCCNC(=N)N)C(=O)N[C@@H](CCCCN)C(=O)N[C@@H](CCC(N)=O)C(=O)N[C@@H](C)C(=O)N[C@@H](C)C(=O)N[C@H](C(=O)N[C@@H](CCCCN)C(=O)N[C@@H](CCCCN)C(=O)N[C@@H](Cc1ccc(O)cc1)C(=O)N[C@@H](CC(C)C)C(=O)N[C@@H](C)C(=O)N[C@@H](C)C(=O)N[C@H](C(=O)N[C@@H](CC(C)C)C(N)=O)C(C)C)C(C)C)[C@@H](C)O) [Peptide 33] | 
